Assay results reported in patent US20060281899A1, “Mutants of biotin binding protein” (priority 2002, published 2006).
Where two headings read alike, the source gives them in different places.

Experiments:
[1] = IASyS optical biosensor, binding in a 2-iminobiotin cuvette; details: for Kd: 2-iminobiotin cuvette, 20.0° C.
Protocol: The biotin-binding characteristics of the AVR proteins were studied as previously described using the IASyS optical biosensor (Marttila, A. T., Airenne, K. J., Laitinen, O. H., Kulik, T., Bayer, E. A ., Wilchek, M. and Kulomaa, M. S. (1998) FEBS Lett. 441, 313-317; Laitinen, O. H., Airenne, K. J., Marttila, A. T., Kulik, T., Porkka, E., Bayer, E. A., Wilchek, M. and Kulomaa, M. S. (1999) FEBS Lett. 461, 52-8). Affinities were measured for 2-iminobiotin or biotin at 20.0° C. using a stirring power of 100%. Briefly, the protein under study in biotin-free buffer was allowed to bind to the biotin-coated surface of the IASyS cuvette. As a negative control, the protein under study was saturated with excess biotin prior to (and was also maintained under biotin excess upon) addition to the cuvette. Under these conditions, residual binding to the biotin surface of the cuvette could be regarded as unspecific, and was used as a measure of baseline variation. Binding equilibrium in the experimental cuvette was considered to be attained after no binding was detected as compared to negative control.
The actual dissociation constants (Kd) were calculated for the AVRs according to the kass and kdiss rates measured in a separate assay in different protein concentrations (varying between 10 μM and 100 pM) (Table 4 and FIG. 6). The binding seemed to follow two-order or even more complex kinetics. However, the first 1000 seconds of the binding fitted considerably well to the bi-phasic curve. All measured dissociation rate constants (kdiss) followed the first-order kinetics. Because of the extremely high binding, affinities of the AVRs for biotin could not be determined except for AVR1, AVR2 and AVR7. Binding to 2-iminobiotin was determined only for AVR4/5, and it was similar to that of avidin. The lack of binding for the other AVRs was surprising, since most of them were purified using 2-iminobiotin agarose.

[2] = IAsys reversibility of binding to biotin, AVR4/5 forms; details: biotin cuvette
Protocol: The biotin-binding characteristics of the different avidins were studied using an IAsys optical biosensor at 20° C. […] H., Hytönen, V. P., Ahlroth, M. K., Pentikäinen, O. T., Gallagher, C., Nordlund, H. R., Ovod, V., Marttila, A. T., Porkka, E., Heino, S., Johnson, M. S., Airenne, K. J. & Kulomaa, M. S. (2002) Biochem. J. 363, 609-617).

[3] = Differential scanning calorimetry of avidin and AVR4/5 forms; type: physicochemical
Protocol: The thermodynamics of the heat-induced unfolding of the proteins were studied using DSC. The transition midpoint of heat-induced denaturation (Tm) of the avidin and different AVR4/5 forms was studied using a Nano II differential scanning calorimeter (Calorimetric Sciences Corporation, Provo, Utah, USA). The reference cell was filled with buffer whereas the sample cell was filled with proteins dissolved in 50 mM sodium phosphate buffer, pH 7.0 containing 100 mM NaCl. Avidin and AVR4/5(C124S) were also analyzed in 50 mM Na-acetate pH 4.0 containing 100 mM NaCl. Furthermore, AVR4/5 was analyzed in the presence of 2-mercaptoethanol (0.4% v/v). The samples (1.6-9.6 μM) were analyzed both in the absence and presence of a three fold molar excess of biotin/subunit. All samples were degassed before being loaded into the DSC. The thermograms were recorded as a function of temperature; between 25 and 130° C. at a rate of 55.6° C./h (Gonzalez, M., Argarana, C. E. & Fidelio, G. D. (1999) Biomol. Eng. 16, 67-72; Nordlund, H. R., Laitinen, O. H., Uotila, S. T., Nyholm, T., Hytönen, V. P., Slotte, J. P. & Kulomaa, M. S. (2003) J. Biol. Chem. 278, 2479-2483). Data was analyzed using Microcal Origin 6.0 and Cpcalc 2.1 (Applied Thermodynamics, Hunt Valley, Md.). The change in heat capacity upon unfolding (ΔCp) was measured for avidin and AVR4/5(C124S) using DSC data from measurements in pH 4.0 and 7.0. ΔCp was then obtained from the slope of ΔH vs. Tm (Liu, Y. & Sturtevant, J. M. (1996) Biochemistry 35, 3059-3062).

[4] = Isoelectric focusing; type: physicochemical
Protocol: The heat stability of the AVRs was studied by using an SDS-PAGE-based method (Bayer, E. A., Ehrlich-Rogozinski, S. and Wilchek, M. (1996) Electrophoresis 17, 1319-1324). In this method, each protein sample was divided into two fractions one of which was kept biotin-free and the other was supplemented with an excess of biotin. The samples were then mixed with denaturing SDS-PAGE sample buffer (containing β-mercaptoethanol) and incubated at a given temperature for 20 minutes. After heat treatment, the samples were subjected to SDS-PAGE and visualised by staining with Coomassie brilliant blue. The relative proportions of tetrameric and monomeric forms of the AVR proteins (with avidin as the control) were detected. A similar assay, with β-mercaptoethanol omitted from the sample buffer, was performed to examine the presence of intersubunit disulfide-bridges. Sensitivity to proteinase K was studied both in the absence and in the presence of biotin as described (Laitinen, O. H., Airenne, K. J., Marttila, A. T., Kulik, T., Porkka, E., Bayer, E. A., Wilchek, M. and Kulomaa, M. S. (1999) FEBS Lett. 461, 52-8). The isoelectric point of each AVR was determined by isoelectric focusing as previously reported (Marttila, A. T., Airenne, K. J., Laitinen, O. H., Kulik, T., Bayer, E. A., Wilchek, M. and Kulomaa, M. S. (1998) FEBS Lett. 441, 313-317). The glycosylation patterns of the AVR proteins were studied by treating the proteins with Endo Hf and PNGase F glycosidase according to the manufacturer's instructions (New England Biolabs, Mass., USA).

[5] = 2-iminobiotin cuvette (as for Kd of this protein)

- kass [1, 5]: (1.8 ± 0.2) × 10^5 M^−1 s^−1
- kdiss [1, 5]: (1.7 ± 0.7) × 10^−3 s^−1
- Kd ([1]; read-out: Kd calculated directly from the binding curves): 91 nM
- Kd ([1]; read-out: Kd calculated from the equilibrium response data): 570 nM
- maximal binding (Rmax) ([1]; iminobiotin binding, highest concentration (2.2×10−6 M)): ca. 1000 arc seconds
- Reversibility of binding to biotin [2]: 5 ± 3%
B1: AVR4/5: Recombinant chicken avidin-related protein 4/5 (AVR4 and AVR5 identical in coding sequence) (protein, UniProt P56734 25-150, looked up)
Avidin-related protein 4/5: ARKCSLTGKWTNNLGSIMTIRAVNSRGEFTGTYLTAVADNPGNITLSPLLGIQHKRASQPTFGFTVHWNFSESTTVFTGQCFIDRNGKEVLKTMWLLRSSVNDISYDWKATRVGYNNFTRLCTVEE
- DSC Tm(−biotin) ([3]; 50 mM sodium phosphate pH 7.0, 100 mM NaCl): 107.4 ± 0.3 °C
- ΔTm ([3]; change in Tm upon addition of a three-fold molar excess of biotin): 17.3 °C
- ΔH of unfolding ([3]; sample without biotin): 194 ± 33.5 kcal/mol
- DSC Tm (+biotin) ([3]; three-fold molar excess of biotin, pH 7.0): 124.7 ± 0.3 °C
- pI by isoelectric focusing [4]: ≈ 10
